Measured values taken from patent US20180071389A1 (HER MAJESTY THE QUEEN IN THE RIGHT OF CANADA AS REPRESENTED …, published 2018).

T1: sGP 1-295aa (Ebola virus (ZEbov by the title of …, UniProt P60170 33-295))
T1 sequence: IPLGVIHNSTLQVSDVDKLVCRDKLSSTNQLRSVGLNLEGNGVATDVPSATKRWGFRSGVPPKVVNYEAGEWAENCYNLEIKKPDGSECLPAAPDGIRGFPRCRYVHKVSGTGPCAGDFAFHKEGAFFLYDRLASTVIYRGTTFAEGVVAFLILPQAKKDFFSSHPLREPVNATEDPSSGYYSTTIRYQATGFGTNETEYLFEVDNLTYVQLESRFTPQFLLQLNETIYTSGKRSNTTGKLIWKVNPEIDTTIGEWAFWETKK

T2: Mucin domain 333-458aa (Ebola virus (ZEbov by the title of …, UniProt Q05320 333-458))
T2 sequence: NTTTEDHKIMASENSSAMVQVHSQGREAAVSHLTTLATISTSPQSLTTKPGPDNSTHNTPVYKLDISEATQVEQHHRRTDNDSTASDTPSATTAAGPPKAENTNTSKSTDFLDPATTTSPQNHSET

T3: GP1 1-501aa (Ebola virus (ZEbov by the title of …, UniProt Q05320 33-501))
T3 sequence: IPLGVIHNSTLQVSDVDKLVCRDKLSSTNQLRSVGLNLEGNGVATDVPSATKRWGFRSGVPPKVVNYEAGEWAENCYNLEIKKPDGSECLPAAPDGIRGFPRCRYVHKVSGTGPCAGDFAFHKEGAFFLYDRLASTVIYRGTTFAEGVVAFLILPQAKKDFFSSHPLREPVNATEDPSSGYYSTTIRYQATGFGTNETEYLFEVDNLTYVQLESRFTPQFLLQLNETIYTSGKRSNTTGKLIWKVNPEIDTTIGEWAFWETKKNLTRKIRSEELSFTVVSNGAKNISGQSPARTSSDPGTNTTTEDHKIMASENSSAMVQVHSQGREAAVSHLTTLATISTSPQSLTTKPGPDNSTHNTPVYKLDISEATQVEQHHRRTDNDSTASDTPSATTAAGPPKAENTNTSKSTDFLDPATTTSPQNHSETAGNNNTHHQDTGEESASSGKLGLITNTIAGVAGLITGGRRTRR


Tests used:
Assay in all cases: ELISA, antigen coated 0.3 µg/well, serial dilutions of MAb
[1] = target: T1, sGP 1-295aa
[2] = target: T2, Mucin domain 333-458aa
[3] = target: T3, GP1 1-501aa

Binder | binding result [1] | binding result [2] | binding result [3]
monoclonal antibody 4G7 (antibody, V domains shown) VH: GPELEMPGASVKISCKASGSSFTGFSMNWVKQSNGKSLEWIGNIDTYYGGTTYNQKFKGKATLTVDKSSSTAYMQLKSLTSEDSAVYYCARSAYYGSTFAYWGQGTLVTVSA VL: ASLSASVGETVTITCRASENIYSYLAWYQQKQGKSPQLLVYNAKTLIEGVPSRFSGSGSGTQFSLKINSLQPEDFGSYFCQHHFGTPFTFGSGTELEIKR | no binding (tested: Cut off was 2X background) | no binding (tested: Cut off was 2X background) | –
monoclonal antibody 10C8 (antibody, V domains shown) VH: GAELVRSGASVKLSCTSSGFNIKDYFLHWVKQRPEQGLEWIGWIDPENGDTEYAPKFQDKATMTADTSSNTAYLHLSSLTSEDTGVYYCNADGNYGKNYWGQGTTLTVSS VL: LSLPVSLGDQASISCRSSQSLVHSNGNTFLHWYLQKPGQSPKLLIYRVSNRFSGVPDRFSGSGSGTDFTLKISRVEAEDLGVYFCSQSTHVPPYTFGGGTKLEIKR | no binding (tested: Cut off was 2X background) | – | –
monoclonal antibody 1H3 (antibody, V domains shown) VH: GAELVKPGASVKLSCTASGFNIKDTYIHWVKQGPEQGLEWIGRIDPANGNTKYDPKFQGKATITADTSSNTAYLQLSGLTSEDTAVYYCARESRISTMLTTGYFDYWGQGTTLTVSS VL: AIMSASPGEKVTMTCSASSSVSYMYWYQQKPGSSPRLLIYDTSNLASGVPVRFSGSGSGTSYSLTISRMEAEDAATYYCQQWSSYPYTFGGGTKLEIKR | – | no binding (tested: Cut off was 2X background) | –
monoclonal antibody 7G4 (antibody, V domains shown) VH: GGGLVQPGGSLRLSCATSGFTFTDHYMGWVRQPPGKALEWLAFVRYKAKGYTTEYTASVKGRFTISRDNSQSILYLQMNTLRTEDSATYYCARDRGGYVGAMDYWGQGTSVTVSS VL: LSLPVSLGDQASISCRSSQSLVHRNGNTYFHWYLQKPGQSPKLLIYKVSNRFSGVPDRFSGSGSGTDFTLKISRVEAEDLGVYFCSQSTHVPYTFGGGTKLEIKR | no binding (tested: Cut off was 2X background) | – | –
monoclonal antibody 2G4 (antibody, V domains shown) VH: GGGLMQPGGSMKLSCVASGFTFSNYWMNWVRQSPEKGLEWVAEIRLKSNNYATHYAESVKGRFTISRDDSKRSVYLQMNTLRAEDTGIYYCTRGNGNYRAMDYWGQGTSVTVSS VL: ASLSVSVGETVSITCRASENIYSSLAWYQQKQGKSPQLLVYSATILADGVPSRFSGSGSGTQYSLKINSLQSEDFGTYYCQHFWGTPYTFGGGTKLEIKR | no binding (tested: Cut off was 2X background) | no binding (tested: Cut off was 2X background) | no binding (tested: Cut off was 2X background)
monoclonal antibody 7C9 (antibody, V domains shown) VH: GAELVKPGASVKLSCTASGFNIKDTYMHWVKERPDKGLEWIGRIDPANGNTKCDSRFQGKATITADTSSNTAYLQLSSLTSEDTAVYYCARRIYFGKGFDFWGQGTTLTVSS VL: SSLSVSAGEKVTMSCKSSQSLFNSGDQKNYLAWYQQKPGQPPKLLIYGASTRESGVPDRFTGSGSGTDFTLTISSVQAEDLAVYYCQNDQFYPPTFGDGTKLDLKR | no binding (tested: Cut off was 2X background) | – | –
monoclonal antibody 5D2 (antibody, V domains shown) VH: GPGLVRPSQSLSLTCTVTGYSITSDYAWNWIRQFPGNKLEWLGYITNTGSTGFNPSLKSRISITRDTSKNQFFLQLISVTTEDTATYHCARGLAYWGQGTLVTVSA VL: not shown | no binding (tested: Cut off was 2X background) | – | –
monoclonal antibody 5E6 (antibody, V domains shown) VH: GGGLVKPGGSLKLSCAASGSAFSRYDMSWVRQTPEKRLEWVAYISRGGGFIYYPDTVKGRFTISRDNAKNTLYLQMSSLKSDDTAMYYCARHVYYGSSPLYAMDYWGQGTSVTVSS VL: SASFSLGASAKLTCTLSSQHSTFTIEWYQQQPLKPPKYVMELKKDGSHSTGDGIPDRFSGSSSGADRYLSISNIQPEDEAIYICGVGDTINEQFVYVFGGGTKVTVLG | no binding (tested: Cut off was 2X background) | – | –
